{
  "source": "patent US20130005666A1",
  "target": "Neh2-luciferase fusion protein (human; firefly)",
  "data": [
    {"substance": "FLAG-labeled Keap1 expressed from an adenovirus", "values": [
      {"measurement": "background luminescence of the Neh2-luc reporter cell line (fold decrease)", "result": 3.5}
    ]}
  ]
}
